In patent publication US20210340516A1, “COMPOSITIONS CONTAINING ARGINASE 1 FOR THE TREATMENT OF NEUROVASCULAR AND RETINAL VASCULAR DISORDERS” (Augusta University Research Institute, Inc., priority 2020, published 2021):

Key:
[1] = Pharmacokinetic profile of PEG-A1 in mouse vitreous by arginase activity after intravitreal administration; assay type: in vivo; conditions: adult mice, intravitreal 6.8 ng in 1 μL
Excerpt: Based on the results of the above studies showing detrimental effects of A1 hemizygous deletion on vascular repair in A1^+/− mice and the findings that increases in A1 expression accompany the beneficial effects of A2 deletion on the vascular injury, it was hypothesized that treatment with A1 could be useful in limiting OIR-induced retinal injury. To test this, a PEG-A1 was used. […] Adult mice were used in this experiment to get higher vitreous yield for ease of processing.

[2] = system: WT pups subjected to oxygen-induced retinopathy (OIR); test: OIR mouse model: Western blotting and immunolabelling of retina (A1, cleaved PARP, calbindin horizontal cells); assay type: in vivo
Description: Western blotting analysis: Retina lysates were homogenized in RIPA buffer supplemented with protease and phosphatase inhibitors. Samples (20 μg protein) were run on 10% sodium dodecyl sulfate-polyacrylamide gel electrophoresis, transferred to nitrocellulose membrane and reacted with primary antibody followed by horseradish peroxidase-linked secondary antibody and enhanced chemiluminescence (Amersham Pharmacia). β-actin (mouse monoclonal antibody, 1:5000, Sigma-Aldrich) or GAPDH served as a loading control. The following primary antibodies were used: GFAP, PARP, A1.
Immunofluorescence labelling: PFA fixed eyeballs were washed in PBS and cryoprotected. Cryostat sections (15 μm) were permeabilized in 1% Triton (20 min) and blocked in 10% normal goat serum containing 1% BSA (one hour). Sections were then incubated overnight in primary antibodies at 4° C. On day two, the sections were incubated at room temperature for 1 hour in fluorescent conjugated secondary antibodies (Life Technologies), washed in PBS and mounted with Vectashield (Vector Laboratories)
PBS was used as vehicle control. Pups were anesthetized before treatment by intraperitoneal (i.p.) injection of ketamine/xylazine mixture. Intravitreal injections were performed using a 36-gauge NanoFil needle mounted to a 10-μL Hamilton syringe (World Precision Instruments). Two treatment strategies were employed. […]

[3] = system: mice subjected to optic nerve crush (ONC); test: Optic nerve crush (ONC) model of traumatic optic neuropathy: neuroprotection by NeuN labeling; assay type: in vivo, mouse; conditions: 7 days post-ONC, treated at 3 hours and day 4; vehicle group 62%
Description: Mouse retinal ischemia-reperfusion (IR) injury and traumatic optic neuropathy (TON) models: All experiments were performed in accordance with the ARVO Statement for the Use of Animals in Ophthalmic and Vision Research and were approved by the institutional animal care and use committee (Animal Welfare Assurance no. D16-00197). Wild-type (WT) C57BL/6J mice (10-12 weeks old) were anesthetized using ketamine/xylazine mixture then subjected to retinal ischemia-reperfusion (IR) injury or optic nerve crush (ONC) to model traumatic optic neuropathy (TON) as described in Shosha, et al., Cell death & disease, 7:e2483-e (2016) and Xu, et al., Frontiers in Neuroscience, 12:970 (2018). […]
Evaluation of retinal neurodegeneration: Retina flat-mounts and explants were immunolabeled for the neuronal marker, NeuN (Millipore), as previously described in Shosha, et al., Cell death & disease, 7:e2483-e (2016). Images were collected and analyzed in a blinded fashion using a semi-automated method. […] NeuN-positive cells were quantified using ImageJ software ‘Batch processing’ function. […] The macro was validated every time it was used to make sure it is compatible with the set of images being analyzed. […]

[4] = human, in vivo; cited from earlier work
[5] = previously reported (De Santo 2018); cited from earlier work

B1: PEG-A1: recombinant human arginase (rhArg) covalently attached to methoxy polyethylene glycol (mPEG-SPA; MW 5,000) via succinamide propionic acid (SPA) linker (protein, UniProt P05089 1-322, looked up)
Arginase-1: MSAKSRTIGIIGAPFSKGQPRGGVEEGPTVLRKAGLLEKLKEQECDVKDYGDLPFADIPNDSPFQIVKNPRSVGKASEQLAGKVAEVKKNGRISLVLGGDHSLAIGSISGHARVHPDLGVIWVDAHTDINTPLTTTSGNLHGQPVSFLLKELKGKIPDVPGFSWVTPCISAKDIVYIGLRDVDPGEHYILKTLGIKYFSMTEVDRLGIGKVMEETLSYLLGRKKRPIHLSFDVDGLDPSFTPATGTPVVGGLTYREGLYITEEIYKTGLLSGLDIMEVNPSLGKTPEEVTRTVNTAVAITLACFGLAREGNHKPIDYLNPPK
modifications: mPEG-SPA 5 kDa conjugate
notes: recombinant human arginase (rhArg) covalently attached to methoxy polyethylene glycol (mPEG-SPA; MW 5,000) via succinamide propionic acid (SPA) linker
- vitreous arginase activity ([1]; day 3 post injection): three-fold
- vitreous arginase activity ([1]; day 6): returned to baseline
- vitreous arginase activity as compared to vehicle treatment ([1]; immediately after administration): about six-fold increase
- OIR-induced calbindin-positive horizontal cell loss ([2]; P17, compared to vehicle treatment): significantly rescued
- cleavage of the pro-apoptotic marker PARP (Western blot) ([2]; P17 OIR retinal lysates): significantly reduced
- neuroprotection after ONC (NeuN labeling and quantification) [3]: 78%
- safety and tolerability in humans [4]: safe and well-tolerated
- CNS penetration [5]: poor CNS penetration
